Data set [1] has as its target F-actin (rat, endogenous, 100,000 x g pellet) (rat (endogenous in RMC)) (UniProt P60711). Nature of the data set: co-sedimentation.
Data set [2] deals with human GST-cofilin (human) (UniProt P23528). Nature of the data set: pull-down.
Data set [3] deals with the molecule itself. Nature of the data set: cross-linking.
Data set [4] deals with the molecule itself. Description: cross-linking. This is another data set of the same source.

We go through 4 molecules from PMC6925060 (Archives of toxicology, 2017).

Usually stoichiometry N stands for the number of molecules, sites or subunits per partner or assembly.

Sequence of human GST-cofilin (human) (P23528 whole entry): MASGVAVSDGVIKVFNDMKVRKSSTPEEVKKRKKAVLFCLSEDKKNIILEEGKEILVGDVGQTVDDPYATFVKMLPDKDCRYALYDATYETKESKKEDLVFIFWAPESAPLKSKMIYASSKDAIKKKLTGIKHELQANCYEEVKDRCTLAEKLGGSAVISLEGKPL

Regarding “disulfide-crosslinked CAP1 dimer (rat, endogenous, from Cd2+-treated cells) (from UniProt Q08163 1-474) (complex)”, the dimer:monomer ratio in the pellet, percent of that in the supernatant in data set [1] was 172%.

B1: disulfide-crosslinked CAP1 dimer (rat, endogenous, from Cd2+-treated cells) (complex)
chain: MADMQNLVERLERAVGRLEAVSHTSDMHCGYGDSPSKGAVPYVQAFDSLLANPVAEYLKMSKEIGGDVQKHAEMVHTGLKLERALLVTASQCQQPAGNKLSDLLAPISEQIQEVITFREKNRGSKFFNHLSAVSESIQALGWVALAAKPGPFVKEMNDAAMFYTNRVLKEYRDVDKKHVDWVRAYLSIWTELQAYIKEFHTTGLAWSKTGPVAKELSGLPSGPSVGSGPPPPPPGPPPPPVPTSSGSDDSASRSALFAQINQGESITHALKHVSDDMKTHKNPALKAQSGPVRSGPKPFSAPKPQTSPSPKPATKKEPALLELEGKKWRVENQENVSNLVIDDTELKQVAYIYKCVNTTLQIKGKINSITVDNCKKLGLVFDDVVGIVEIINSRDVKVQVMGKVPTISINKTDGCHAYLSKNSLDCEIVSAKSSEMNVLIPTEGGDFNEFPVPEQFKTLWNGQKLVTTVTEIAG
modifications: intermolecular disulfide crosslink, DTT-sensitive; involves Cys29 (shown by mutagenesis of mouse CAP1)
For the molecule B1, the dimer:monomer ratio in the pull-down, percent of that in the total lysate in data set [2] came to 220%.

B2: His-tagged recombinant mouse CAP1 (wild type), from HEK cells (natural protein, UniProt P40124 1-474, looked up)
chain: MADMQNLVERLERAVGRLEAVSHTSDMHCGYGDSPSKGAVPYVQAFDSLLANPVAEYLKMSKEIGGDVQKHAEMVHTGLKLERALLATASQCQQPAGNKLSDLLAPISEQIQEVITFREKNRGSKFFNHLSAVSESIQALGWVALAAKPGPFVKEMNDAAMFYTNRVLKEYRDVDKKHVDWVRAYLSIWTELQAYIKEFHTTGLAWSKTGPVAKELSGLPSGPSVGSGPPPPPPGPPPPPISTSSGSDDSASRSALFAQINQGESITHALKHVSDDMKTHKNPALKAQSGPVRSGPKPFSAPKPQTSPSPKPATKKEPALLELEGKKWRVENQENVSNLVIDDTELKQVAYIYKCVNTTLQIKGKINSITVDNCKKLGLVFDDVVGIVEIINSRDVKVQVMGKVPTISINKTDGCHAYLSKNSLDCEIVSAKSSEMNVLIPTEGGDFNEFPVPEQFKTLWNGQKLVTTVTEIAG
Regarding B2, in “cross-linking [3]”, the binding result is “binds”.

B3: adenylyl cyclase-associated protein CAP1 (rat, endogenous, monomer) (natural protein, rat (endogenous in RMC), UniProt Q08163 1-474, looked up)
chain: MADMQNLVERLERAVGRLEAVSHTSDMHCGYGDSPSKGAVPYVQAFDSLLANPVAEYLKMSKEIGGDVQKHAEMVHTGLKLERALLVTASQCQQPAGNKLSDLLAPISEQIQEVITFREKNRGSKFFNHLSAVSESIQALGWVALAAKPGPFVKEMNDAAMFYTNRVLKEYRDVDKKHVDWVRAYLSIWTELQAYIKEFHTTGLAWSKTGPVAKELSGLPSGPSVGSGPPPPPPGPPPPPVPTSSGSDDSASRSALFAQINQGESITHALKHVSDDMKTHKNPALKAQSGPVRSGPKPFSAPKPQTSPSPKPATKKEPALLELEGKKWRVENQENVSNLVIDDTELKQVAYIYKCVNTTLQIKGKINSITVDNCKKLGLVFDDVVGIVEIINSRDVKVQVMGKVPTISINKTDGCHAYLSKNSLDCEIVSAKSSEMNVLIPTEGGDFNEFPVPEQFKTLWNGQKLVTTVTEIAG
Turning to B3, the “stoichiometry N” value in the data set “cross-linking [4]” stood at 2.
